Measured values as given in FireProtDB (doi:10.1093/protein/12.7.581).
Values joined by “and” are separate entries in the source; they are usually repeats but may differ in a detail not shown here. Equal entries are not always repeated.

Conditions: Bos taurus; pH 7.4; Thermal; CD; Tris-HCl 20 mM; CaCl2 1 mM; reversible: yes(>95%); whole UniProt chain shown

B1: Alpha-lactalbumin wild type, P00711 (protein)
chain: MMSFVSLLLVGILFHATQAEQLTKCEVFRELKDLKGYGGVSLPEWVCTTFHTSGYDTQAIVQNNDSTEYGLFQINNKIWCKDDQNPHSSNICNISCDKFLDDDLTDDIMCVKKILDKVGINYWLAHKALCSEKLDQWLCEKL
- unfolding enthalpy (van 't Hoff): 64.5 kcal/mol and 73.8 kcal/mol and 73.4 kcal/mol
